The values below come from patent publication US20240053350A1.

The target of the test is immobilized peptides having F NTAA residue (F-P2 peptides of the 484-peptide P1-P2 array). The experiment in a line: cell-based or functional assay.

B1: TdT-F4R10 conjugate (designed binder)
chain: GSSHHHHHHGGSSDSPVDLKPKPKVKPKLERPKLYKVMLLNDNSTPGEFVTVVLKAVFRMSEDTGRRVMMTAHRFGSAVVVVSERDIAETKAKEATDLGKEAGFPLMFTTEPEEGAPSGAPSGAPSGAPSGAPSGAPSSPSPVPGSQNVPAPAVKKISQYACQRRTTLNNYNQLFTDALDILAENDELRENEGSCLAFMRASSVLKSLPFPITSMKDTEGIPCLGDKVKSIIEGIIEDGESSEAKAVLNDERYKSFKLFTSVFGVGLKTAEKWFRMGFRTLSKIQSDKSLRFTQMQKAGFLYYEDLVSCVNRPEAEAVSMLVKEAVVTFLPDALVTMTGGFRRGKMTGHDVDFLITSPEATEDEEQQLLHKVTDFWKQQGLLLYCDILESTFEKFKQPSRKVDALDHFQKCFLILKLDHGRVHSEKSGQQEGKGWKAIRVDLVMCPYDRRAFALLGWTGSRQFERDLRRYATHERKMMLDNHALYDRTKRVFLEAESEEEIFAHLGLDYIEPWERNA
On to B1, for which the nucleotides inserted into the recording tag per encoding cycle (nt per encoding cycle) was 5 to 8.
